Source: patent US20130053549A1 (UCB, published 2013)

B1: A26Fab 645Fv 3G4S 1189Fv (other)
heavy: EVQLVESGGGLVQPGGSLRLSCAASGFTFTNYGIHWIRQAPGKGLEWVASISPSGGLTYYRDSVKGRFTISRDDAKNSPYLQMNSLRAEDTAVYYCATGGEGIFDYWGQGTLVTVSSASTKGPSVFPLAPSSKSTSGGTAALGCLVKDYFPEPVTVSWNSGALTSGVHTFPAVLQSSGLYSLSSVVTVPSSSLGTQTYICNVNHKPSNTKVDKKVEPKSCSGGGGSGGGGSGGGGSEVQLLESGGGLVQPGGSLRLSCAVSGIDLSNYAINWVRQAPGKCLEWIGIIWASGTTFYATWAKGRFTISRDSTTVYLQMNSLRAEDTAVYYCARTVPGYSTAPYFDLWGQGTLVTVSSGGGGSGGGGSGGGGSEVQLVESGGGLVQPGGSLRLSCAASGFTFNDYDMAWVRQAPGKCLEWVASITPSGGGTYYRDSVKGRFTISRDNAKNSLYLQMNSLRAEDTAVYYCARHGYTLDYFEYWGQGTMVTVSS
light: DIQMTQSPSSLSASVGDRVTITCRATQSIYNALAWYQQKPGKAPKLLIYNANTLHTGVPSRFSASGSGTDSTLTISSLQPEDFATYYCQQYYDYPLTFGGGTKVEIKRTVAAPSVFIFPPSDEQLKSGTASVVCLLNNFYPREAKVQWKVDNALQSGNSQESVTEQDSKDSTYSLSSTLTLSKADYEKHKVYACEVTHQGLSSPVTKSFNRGECSGGGGSGGGGSGGGGSDIVMTQSPSSVSASVGDRVTITCQSSPSVWSNFLSWYQQKPGKAPKLLIYEASKLTSGVPSRFKGSGSGTDFTLTISSLQPEDFATYYCGGGYSSISDTTFGCGTKVEIKGGGGSGGGGSGGGGSDIQMTQSPSSLSASVGDRVTITCLASEGISNDLAWYQQKPGKAPKLLIYDATRLQDGVPSRFSGSGSGTDFTLTISSLQPEDFATYYCQQSYKYPWTFGCGTKLEIK
notes: Trispecific Fab-Fv-Fv (OX40, HSA, IL-6); second linker 3xG4S; HEK293 supernatant; also called A26Fab-645Fv-1189Fv; FabFvFv
B2: A26Fab 645Fv 2G4S 1189Fv (other)
heavy: EVQLVESGGGLVQPGGSLRLSCAASGFTFTNYGIHWIRQAPGKGLEWVASISPSGGLTYYRDSVKGRFTISRDDAKNSPYLQMNSLRAEDTAVYYCATGGEGIFDYWGQGTLVTVSSASTKGPSVFPLAPSSKSTSGGTAALGCLVKDYFPEPVTVSWNSGALTSGVHTFPAVLQSSGLYSLSSVVTVPSSSLGTQTYICNVNHKPSNTKVDKKVEPKSCSGGGGSGGGGSGGGGSEVQLLESGGGLVQPGGSLRLSCAVSGIDLSNYAINWVRQAPGKCLEWIGIIWASGTTFYATWAKGRFTISRDSTTVYLQMNSLRAEDTAVYYCARTVPGYSTAPYFDLWGQGTLVTVSSGGGGSGGGGSEVQLVESGGGLVQPGGSLRLSCAASGFTFNDYDMAWVRQAPGKCLEWVASITPSGGGTYYRDSVKGRFTISRDNAKNSLYLQMNSLRAEDTAVYYCARHGYTLDYFEYWGQGTMVTVSS
light: DIQMTQSPSSLSASVGDRVTITCRATQSIYNALAWYQQKPGKAPKLLIYNANTLHTGVPSRFSASGSGTDSTLTISSLQPEDFATYYCQQYYDYPLTFGGGTKVEIKRTVAAPSVFIFPPSDEQLKSGTASVVCLLNNFYPREAKVQWKVDNALQSGNSQESVTEQDSKDSTYSLSSTLTLSKADYEKHKVYACEVTHQGLSSPVTKSFNRGECSGGGGSGGGGSGGGGSDIVMTQSPSSVSASVGDRVTITCQSSPSVWSNFLSWYQQKPGKAPKLLIYEASKLTSGVPSRFKGSGSGTDFTLTISSLQPEDFATYYCGGGYSSISDTTFGCGTKVEIKGGGGSGGGGSDIQMTQSPSSLSASVGDRVTITCLASEGISNDLAWYQQKPGKAPKLLIYDATRLQDGVPSRFSGSGSGTDFTLTISSLQPEDFATYYCQQSYKYPWTFGCGTKLEIK
notes: Trispecific Fab-Fv-Fv (OX40, HSA, IL-6); second linker 2xG4S; HEK293 supernatant; also called A26Fab-645Fv-1189Fv; FabFvFv

Key:
human serum albumin [1] = molecular target: T1, human serum albumin (human, UniProt P02768 25-609); experiment: SPR, Biacore T100; sample captured by anti-human CH1 antibody, HSA as analyte, 1:1 fit
T1 construct: Bought protein; also called HSA
Description: (§1) Covalent immobilisation of the capture antibody was achieved by standard amine coupling chemistry.
(§2) After each cycle, the capture surface was regenerated with 2×1 min injections of 40 mM HCl followed by 30 s of 5 mM NaOH. The flow rates used were 10 μl/min for capture, 30 μl/min for association and dissociation phases, and 10 μl/min for regeneration.
(§3) Kinetic parameters were determined by simultaneous global-fitting of the resulting sensorgrams to a standard 1:1 binding model using Biacore T100 Evaluation Software v2.0.1.

human serum albumin [2] = molecular target: T1, human serum albumin; experiment: SPR, Biacore T100; sample captured by anti-human CH1 antibody, HSA as analyte
Description: as §1, §2
(§4) A blank flow-cell was used for reference subtraction and buffer-blank injections were included to subtract instrument noise and drift.

IL-6 [3] = molecular target: T2, IL-6 (UniProt P05231 30-212, limits assumed); experiment: SPR, Biacore T100; sample captured by anti-human CH1 antibody, IL-6 as analyte
Description: as §1, §2, §4

IL-6 [4] = molecular target: T2, IL-6; experiment: SPR, Biacore T100; sample captured by anti-human CH1 antibody, IL-6 as analyte, 1:1 fit
Description: as §1, §4, §3

Row | Binder | Kd (human serum albumin [1]) [nM] | koff (human serum albumin [1]) [s⁻¹] | kon (human serum albumin [1]) [M⁻¹ s⁻¹] | Stoichiometry (human serum albumin [2]) | Stoichiometry (IL-6 [3]) | Kd (IL-6 [4]) [nM] | koff (IL-6 [4]) [s⁻¹] | kon (IL-6 [4]) [M⁻¹ s⁻¹]
1 | B1 | 11.6 | 0.000392 | 33800 | 0.39 | 0.68 | 0.84 | 0.000737 | 874000
2 | B2 | 11.6 | 0.000389 | 33700 | 0.4 | 0.47 | 0.78 | 0.000747 | 959000
